Laboratory results published in the DeepSol protein solubility set.

assay: soluble on expression in E. coli; label from the status in PepcDB or PDB records

Soluble on expression in E. coli, not soluble:
MGSDKIHHHHHHMPVYLYYGEDTYSLNQKIDHLVNQNVHAEWKDFNYIKLSGNEKNIAAKVFTEVMTLPFGEGNKIVHTDSDHLIGSLSNEDNNQELENQLSRIPASNILLITSNKKPDSRRTVVKTILKYAQQEEFPLVPCWDKKGIVNLIGKYAAIHQVKFTPDVTDYLVEAIGNNTARVDSEFAKLAVYASEKIISLEEIKQLVSNHNTDYQKLTIAMLRNHSNLAIAQVDKLLDSNEHPLKIVATLTSFFRTWLITKAGVEARLSDIKIAEIAEVKNPKRLYYLKDEIKFVGVQKLKNSLTLLLQLETELKSGTNNLISRIIEICMI
MGSDKIHHHHHHMPYPKKVTIKEVGPRDGLQNEPVWIATEDKITWINQLSRTGLSYIEITSFVHPKWIPALRDAIDVAKGIDREKGVTYAALVPNQRGLENALEGGINEACVFMSASETHNRKNINKSTSESLHILKQVNNDAQKANLTTRAYLSTVFGCPYEKDVPIEQVIRLSEALFEFGISELSLGDTIGAANPAQVETVLEALLARFPANQIALHFHDTRGTALANMVTALQMGITVFDGSAGGLGGCPYAPGSSGNAATEDIVYMLEQMDIKTNVKLEKLLSAAKWIEEKMGKPLPSRNLQVFKSS
MGSDKIHHHHHHMQAEAQHPKAEQYRTARLSRDARFDGLFFVGVFSTGIFCRPICPAVPAKEANVRYFDDALSAAQAGLRPCLRCRPDSAPGSNPWLGKQTSLNRAMSLIDAGVLCGPQAIPMTGLAERLGISERYLRQLFHDSLGTSPKQYALYQQLMFAKQLLHQTKMPITQVAYAAGFNSVRRFNEIFRQQLQLTPSEIRKATGQPSLPVQGLTLKLAYRPPYDWQHLRSFFAQRAVPEMEWLDEQSYGRSFVLGAAKGYFCAVHSEQEACFHVTIHLAEADSLSQLKGIISHIRRILDLDADMLTIGDKLQALGKALPQVSPGLRLPGVWSPFEAACRAILGQQVSVTQAIKLLGQLVADHGETISLNEKTVRLFPTPAALVDASLDGLKMPGIRKEAIRALAAFVMANPESEIDDWLQIKGIGPWTLDYVRLRGLSLPDVLLVGDLVVKQQLLVNLRPEPSSCDGEPAEDEDPKAAKKRAQAQYQALSQAVLRQVAPWGSYLTLQLWNRQ
MGSDKIHHHHHHMQDIDEFLKKHRITEIEAIIPDMAGIARGKIIPRSKFETGESMRLPQAVMIQTVTGDYPEDGSLTGVTDPDMVCLPDASTIRLIPWAIDPTAQVIHDCVHFDGTPVEISPRRVLRRVLELYKAKGWKPVIAPELEFYLVDMNKDPDLPLAPPIGRTGRPETGRQSYSIEAVNEFDPLFEDIYEYCEVQDLEVDTLIHEVGAAQMEINFLHGDPLNLADRVFLFKRTVREAALRHHMYATFMSKPMENEPGSAMHVHQSIVDEETGRNLFTGDDGGPTDMFYAYIAGLQKYTPALMPIFAPYINSYRRLSRFMAAPINVQWGYDNRTVGFRVPHSSPVSRRVENRIPGVDCNPYLAIAGTLAAGYLGMTRRLEPTEPLASDGYSLPYQLPRNLEEGLTLMSACEPLAEILGEKFVKAYLALKETEYEAFFRVISSWERKHLLLHV
MGSDKIHHHHHHMQDYYSTLIGWMIPISRAMEAHQIDLTTALKECNISQDVMTDQESRIAAEKFYNLIEYCNKKLGRHDFSILIAEQFHPGMFHALGYAMMSSNTLQDALDRIAHYKRVVSNTCQLVTYESNNQLVFEMNIFTYEGTNRPVLSLATVETFLATIIRFARELVTLDFSPEKICFAYQKPAHDVTYLEEFFNCDIEFNSDKNAIIFNFEQAQEKLMCGNPLITHSHEKMLDEFMARIDKNDLSHVIKNKIFDLLPLGAPSQIVIAEDLGMSLRNLQRKLQEQGTSYKEILESTRKKLAMDYIVQQHLSLSEIGYLVGFSSVGNFNRAFKRWTNQTPGEYRQSKKT
MGSDKIHHHHHHMQFGKTDTPEDIDFTLPKDHPDTKKILSEAKPGKHFNVYVGCAKWNKTDLKNFYPKGTKDELQYYATQFNSIELNATFYKSPSKDQVQTWKAKAAKGFKFFPKIPNTISHFKRLVGVETIVEEFCDAVVLFEENLGMSFLQMHDNFKPKDMDKLDAFLKKFPASVPLAVELRNEEWYSDKNVQDDLHAMLVKYKKTFVLVDTAARRDIMHMRLTSDKAFIRYVGANHESDYARLDDWIKRIKTWRKEGLNELYFFVHQNVELESPLLSAYFIEKMNKEFDLDLTVPQTIKKKQ
MGSDKIHHHHHHMQHWAIFATDSYSGSLLGRMLAADIQPDEGQICNLPARVGWVSLGLQQALLERELAKDELDYGSTVEALVLECCQDSAQLPALLQKVGLEPLRQRGFRQLSTGETRRVMLARALAMLPQLLILDDPYAGLDAEHQGSLSELLCEVAAHSQLLVITSRQEELPPCISHVALFNSEMLKSGQHVHKLSAPMSIEQWHSHPVMAQLNALSASRSDELLALMERQRHNAEAFDPLVEIKNGKVEYVSCLIFKGVNWRINAGQHWQVRGPNGCGKSTLLGLILGDHPQCYSNDITLFGRPRGSGESIWQIKQRIGIVSSALHLQYRVSCSALDVLLSGFYDSIGLYHKPTKPQVDLAKEWLAILHMNEFASTGFKQLDYGQQRLLLIGRALIKQPLLLILDEPYQGLDFINRTLVMRALEMIAEHHLSQLLYVSHHREDALPAIKNFVDFIKQDNGYSVEVSHRPNELAQRMPIP
MGSDKIHHHHHHMQILIYSYNYHPEPIGIAPLMTELAEGLVKRGHQVRVITGMPNYPQRQIYDRYRGKLYVTEQKNGVKIQRSYLRIKSKPNLIDRLLLELSFVFTSLPQALKGERPDVILLTIPPLLVCLPATLIGWLYNCPVVLNVQDILPEAGVRVGLIKNKLMIQALEALEKFAYRTAHTISVIADGFVDNLINKGVPANKIACIPNWVNLNFIRPLPKVNNSWRATHQLDGKFVVLYSGNIALTQGLETVIEAAARLRHLKEIIFVVAGESQALERLQKHCLACGADNVLLLTLQAREKLPQMLAAADVGLIVQKCNVISFNMPSKIPLLLASGRPIVGSVPALGTAAKAIRESGGGVIVEPESAGALAAAVLDLYHQPELAAQLGCKGRKFAVENYSFEQALDRYEELFADAIAKRATNLDILPEMSSKQSLVDI
MGSDKIHHHHHHMQITKRNVELRVDDSLMRVYVASPKPVGVYPGIVFYSDIYQLGSPIIRLANYLAGFGYVVAAPEIFHRLEPIGLVIEPDDLGRMRGNDNARRTAIAEYDADSRAVIDFLKAETTVNANKIGTVGFCIGGHLAFRAAFENEVKASACCYPTGIPSGKLGKGVADTIHRVKEIKGEMLLVLGTLDPHIPESDRQILIKAIEDAKVPHKVVLYEAEHTFMRDDGYRYDSAATTFAWAEIVEFLGRVFAD
MGSDKIHHHHHHMQLEELINQHYSKLNDNDFHILKYILNHKHTCYHLGIDALAKACSVSRSSILRLAQKLGFSGYSEFRVFLKWEDQPEEGESMSFEKLLDDIEANLKFLRTKDMTDMCQLIDAADRIFVYGSGNAQKICARDLQRMFIPRHRYLILIEDTNEFNLMRDDFKVNDLFIIISLSGETPELIPQARMLSAKGIPFISITNLKNNVLAQLTPHNLYATSKPVTLSDRTEIVAFAPFFLVGEALFRAYVDYKEAEKNDNE
MGSDKIHHHHHHMQLIPLAERMRPVLLQDVYGQQHLIGEGMVFRRFVEEGKIPSMILWGPPGVGKTTLAQLLAKTVGLPFYTLSAISSGVKEVREVIANAQTDGKAVLFIDEIHRFSKSQQDALLGAVEKGTIQLIGATTENPSFEVIPALLSRCQVYVLQPLSEEELVELMRSALKKDAYLKTRSVEIKEHDSLLRLSGGDARKLLNLLELVIDASGKDPIVITDAYVQKIAQKKVASYDKNGEMHYDIISAFIKSVRGSDPNAAVYWLARMIEGGEDVEFIARRLLILASEDVGNANPTALVMATTAFDAVRFIGWPESRIILSQVTTYLASSPKSNASYMAINEAQQLVRSHGDLPVPIHLRNAPTKLMKDLDYGKEYKYAHSYEANFVEQEYMPDKLAGKKIFDPGNNAREQELRTFLQKRWKEKYKY
MGSDKIHHHHHHMQLNPSLIPHSSEQHVDWEKALHGGNDALLTQLAADDDPAAALLELESYINGIYRGSPSPLSKPLPDIRLEVRRALPYVDEIRDRLGWQVRDFDLGLLRLIRGSSTLSPVLGAGVSMDAGAPSWPELVRLMLEETLDKGLEFYESVPAADNPAQPPIEFLPDGTVRTGGTGTWRFEQRVSEVKRYTAEQEQTARNVLAEVKAKGSSTDVETLMHGAQVCYDLCGQHLFRLLTKIIYTRAKEPSEVHRVIAELAQAQEVPVRGPGLFPGWDSIITYNIDALMSEALAEQKIPHAAWAMKGDKLRGNPDELAQKSSWHEPIFHLHGFSPRRLFMITNVRFVFSTSQYLTTYKGPRSRILEAVYDEFLANPVRIALYIGCSFADEAMNGLLREAFAEYPGRYHYALLKWPRDRKGKEPDRSEIAAESAKYLEFGVRPIWFDDFAELPGLIRQLQ
MGSDKIHHHHHHMQMKQVLLEARQDFLSLLKRRGWKEKDLNILRGIFLGELSRVDVPADIFELAIKEAVKGNLKLSSKLLGVSEIDTLEILFWYLPKKYPLPSERLKKRLKAESVKEFIEEANRLRVKLGKKDFMELYLHLEEAEEEEEKRENTDLLERVRNLSIEKLSESEIEELRYFYSLLDLRGKESVRTLNVHPYILSAIIRNPSAPIVIDGSNLLWRGGLSVSYIYEVFERLAVFREFFFPYRIVFDRNAEFVLPVHERKGFERWKNSPNVLFESPADGLIISLANTMDAVVLSGDRFRDHGLPRRVRVLTPEEIEKG
MGSDKIHHHHHHMQNFVLTVSCKSTRGVVAALSGYLAEQGCNIADSSQFDDLDTGKFFMRTSFISEERVGLAALEEGLKPIASKFEMETALHEQSERMKVLLMVSRFGHCLNDLLYRWKIGALPIDIVGVVSNHFDYQKVVVNHDIPFHHIKVTKENKPKAEAQLMDVVEQTGAELIVLARYMQVLSDALCKKMSGKIINIHHSFLPSFKGANPYKQAYERGVKLIGATAHYVTADLDEGPIIEQDIARITHAQSAEDYVSIGRDVESQVLARAVHAHIHHRCFINGNRVVVFPPSPGSYASERMG
MGSDKIHHHHHHMQNIIIEARVNELATRIGNPHVPFLPAEVIADAKACHDAGASIFHFHGRNEDGTPSHDPNFYLETNAGIRAQSDILIHPTLGYVANDTDAKGRFAAIEQMMQSAETAPDFAPMDTGSVNVDWWNPDEGKYDTTELIYKNSTGTLMYFADRIRHYNLTPYLVSWNVSFTRQIEQFLKMGVLDAPAYICFCMTDEIIFAGHPGTEAGLDAHTAFLPPEFETVWTVVNYKGDLFQLTEKIIRTGGHISIGLGDYAYMDGSRHMTNAEVIAKVADQARRLGREPASVAETREILNMKTPRIAA
MGSDKIHHHHHHMQNPFTTTFSKTPEYTYIHTEKTEEILENFIYDNPSESVYKITGVRGSGKTVILAKVEEELRTNESRYINWLVFDVNPARDILGQIAAMLVKAGFGSQDKKTTGINLSATVMGTGGGIGYTAENNNNFFDIGVEVETMIQAAQKKGKKILIGIDEVSKSEEMIKFASEYGRWLRAGYPVYFVCTGLYENIQELSNVKNLTFFRRAATVKTEPLNMIRMTEMYKSKLDIDSNEAREMAKITKGYAYAFQELGVLYFKKKLDELLEDILPKLKAELFAYSYEKIWEEMTEMDRFLAGLLTEKEEYKREEVLKLMGEKSGSYSMYRDRLIKRGILNSRQGYISLALPYFGEYIKEYC
MGSDKIHHHHHHMQNVIENFKQLCKIPHCSYETEQMKEFLSSYAKDKGFKVSVDKAGNIHAIKGKPKICLQSHYDMVCMGDAPNLEVYEENGFLRAKNSSLGADNGIGIAIMMSAMAEFENLECLFTNDEEVGLMGVNLLEHTLESKMLLNLDHESDDEIMIGCAGGVDIEASLSFNTLRKKGKIYELCAQNFKGGHSGINIIRNEKSSIKEMAKFIQENEGEIISFEGGERINSIPKHAKALVHFKDEVKSNNWIKCEFKEENEFEICDQSKKLLSLINSFTHGVRAYDENLDIVQTSINLATLRMQDNQIKFALFARSNILDGLKQVEFETLEFFKAFDFKIRSFNFYPPWEGKPNALSDMVFKALKKVSPNAKVSAIHAGLECGIIEKKQELLCASIGPNIHNPHSTDEHCEIASVEKISKVVFEVLKDNA
